We go through 21 molecules from patent publication US20110118131A1 (published 2011).

B1: XPA23 Fab, heavy chain R59S (Fab, V domains shown)
VH: EVQLLESGGGLVQPGGSLRLSCAASGFTFSKYFMFWVRQAPGKGLEWVSVISPSGGMTSYADSVKGRFTISRDNSKNTLYLQMNSLRAEDTAVYYCARVGYGGNSDYWGQGTLVTVSS
VL: DIQMTQSPSSVSASVGDRLTIICRASQDINRWLAWYQQTPGNAPKLLIHSATSLQSGVPSRFSGSGSGTDFTLTINSLQPEDFATYYCQQADSFPLTFGGGTKVEIK
B2: XPA23 Fab, heavy chain S30D (Fab, V domains shown)
VH: EVQLLESGGGLVQPGGSLRLSCAASGFTFDKYFMFWVRQAPGKGLEWVSVISPSGGMTRYADSVKGRFTISRDNSKNTLYLQMNSLRAEDTAVYYCARVGYGGNSDYWGQGTLVTVSS
VL: DIQMTQSPSSVSASVGDRLTIICRASQDINRWLAWYQQTPGNAPKLLIHSATSLQSGVPSRFSGSGSGTDFTLTINSLQPEDFATYYCQQADSFPLTFGGGTKVEIK
B3: XPA23 Fab, heavy chain S30W (Fab, V domains shown)
VH: EVQLLESGGGLVQPGGSLRLSCAASGFTFWKYFMFWVRQAPGKGLEWVSVISPSGGMTRYADSVKGRFTISRDNSKNTLYLQMNSLRAEDTAVYYCARVGYGGNSDYWGQGTLVTVSS
VL: DIQMTQSPSSVSASVGDRLTIICRASQDINRWLAWYQQTPGNAPKLLIHSATSLQSGVPSRFSGSGSGTDFTLTINSLQPEDFATYYCQQADSFPLTFGGGTKVEIK
B4: XPA23 Fab, heavy chain R59W (Fab, V domains shown)
VH: EVQLLESGGGLVQPGGSLRLSCAASGFTFSKYFMFWVRQAPGKGLEWVSVISPSGGMTWYADSVKGRFTISRDNSKNTLYLQMNSLRAEDTAVYYCARVGYGGNSDYWGQGTLVTVSS
VL: DIQMTQSPSSVSASVGDRLTIICRASQDINRWLAWYQQTPGNAPKLLIHSATSLQSGVPSRFSGSGSGTDFTLTINSLQPEDFATYYCQQADSFPLTFGGGTKVEIK
B5: XPA23 Fab, heavy chain S30N (Fab, V domains shown)
VH: EVQLLESGGGLVQPGGSLRLSCAASGFTFNKYFMFWVRQAPGKGLEWVSVISPSGGMTRYADSVKGRFTISRDNSKNTLYLQMNSLRAEDTAVYYCARVGYGGNSDYWGQGTLVTVSS
VL: DIQMTQSPSSVSASVGDRLTIICRASQDINRWLAWYQQTPGNAPKLLIHSATSLQSGVPSRFSGSGSGTDFTLTINSLQPEDFATYYCQQADSFPLTFGGGTKVEIK
B6: XPA23 Fab, heavy chain S52F (Fab, V domains shown)
VH: EVQLLESGGGLVQPGGSLRLSCAASGFTFSKYFMFWVRQAPGKGLEWVSVIFPSGGMTRYADSVKGRFTISRDNSKNTLYLQMNSLRAEDTAVYYCARVGYGGNSDYWGQGTLVTVSS
VL: DIQMTQSPSSVSASVGDRLTIICRASQDINRWLAWYQQTPGNAPKLLIHSATSLQSGVPSRFSGSGSGTDFTLTINSLQPEDFATYYCQQADSFPLTFGGGTKVEIK
B7: XPA23 Fab, heavy chain S52H (Fab, V domains shown)
VH: EVQLLESGGGLVQPGGSLRLSCAASGFTFSKYFMFWVRQAPGKGLEWVSVIHPSGGMTRYADSVKGRFTISRDNSKNTLYLQMNSLRAEDTAVYYCARVGYGGNSDYWGQGTLVTVSS
VL: DIQMTQSPSSVSASVGDRLTIICRASQDINRWLAWYQQTPGNAPKLLIHSATSLQSGVPSRFSGSGSGTDFTLTINSLQPEDFATYYCQQADSFPLTFGGGTKVEIK
B8: XPA23 Fab, heavy chain S30H (Fab, V domains shown)
VH: EVQLLESGGGLVQPGGSLRLSCAASGFTFHKYFMFWVRQAPGKGLEWVSVISPSGGMTRYADSVKGRFTISRDNSKNTLYLQMNSLRAEDTAVYYCARVGYGGNSDYWGQGTLVTVSS
VL: DIQMTQSPSSVSASVGDRLTIICRASQDINRWLAWYQQTPGNAPKLLIHSATSLQSGVPSRFSGSGSGTDFTLTINSLQPEDFATYYCQQADSFPLTFGGGTKVEIK
B9: XPA23 Fab, heavy chain S52K (Fab, V domains shown)
VH: EVQLLESGGGLVQPGGSLRLSCAASGFTFSKYFMFWVRQAPGKGLEWVSVIKPSGGMTRYADSVKGRFTISRDNSKNTLYLQMNSLRAEDTAVYYCARVGYGGNSDYWGQGTLVTVSS
VL: DIQMTQSPSSVSASVGDRLTIICRASQDINRWLAWYQQTPGNAPKLLIHSATSLQSGVPSRFSGSGSGTDFTLTINSLQPEDFATYYCQQADSFPLTFGGGTKVEIK
B10: XPA23 Fab, heavy chain S30K (Fab, V domains shown)
VH: EVQLLESGGGLVQPGGSLRLSCAASGFTFKKYFMFWVRQAPGKGLEWVSVISPSGGMTRYADSVKGRFTISRDNSKNTLYLQMNSLRAEDTAVYYCARVGYGGNSDYWGQGTLVTVSS
VL: DIQMTQSPSSVSASVGDRLTIICRASQDINRWLAWYQQTPGNAPKLLIHSATSLQSGVPSRFSGSGSGTDFTLTINSLQPEDFATYYCQQADSFPLTFGGGTKVEIK
B11: XPA23 Fab, heavy chain S30E (Fab, V domains shown)
VH: EVQLLESGGGLVQPGGSLRLSCAASGFTFEKYFMFWVRQAPGKGLEWVSVISPSGGMTRYADSVKGRFTISRDNSKNTLYLQMNSLRAEDTAVYYCARVGYGGNSDYWGQGTLVTVSS
VL: DIQMTQSPSSVSASVGDRLTIICRASQDINRWLAWYQQTPGNAPKLLIHSATSLQSGVPSRFSGSGSGTDFTLTINSLQPEDFATYYCQQADSFPLTFGGGTKVEIK
B12: XPA23 Fab, heavy chain S30Q (Fab, V domains shown)
VH: EVQLLESGGGLVQPGGSLRLSCAASGFTFQKYFMFWVRQAPGKGLEWVSVISPSGGMTRYADSVKGRFTISRDNSKNTLYLQMNSLRAEDTAVYYCARVGYGGNSDYWGQGTLVTVSS
VL: DIQMTQSPSSVSASVGDRLTIICRASQDINRWLAWYQQTPGNAPKLLIHSATSLQSGVPSRFSGSGSGTDFTLTINSLQPEDFATYYCQQADSFPLTFGGGTKVEIK
B13: XPA23 Fab, heavy chain R59Y (Fab, V domains shown)
VH: EVQLLESGGGLVQPGGSLRLSCAASGFTFSKYFMFWVRQAPGKGLEWVSVISPSGGMTYYADSVKGRFTISRDNSKNTLYLQMNSLRAEDTAVYYCARVGYGGNSDYWGQGTLVTVSS
VL: DIQMTQSPSSVSASVGDRLTIICRASQDINRWLAWYQQTPGNAPKLLIHSATSLQSGVPSRFSGSGSGTDFTLTINSLQPEDFATYYCQQADSFPLTFGGGTKVEIK
B14: XPA23 Fab, heavy chain S30Y (Fab, V domains shown)
VH: EVQLLESGGGLVQPGGSLRLSCAASGFTFYKYFMFWVRQAPGKGLEWVSVISPSGGMTRYADSVKGRFTISRDNSKNTLYLQMNSLRAEDTAVYYCARVGYGGNSDYWGQGTLVTVSS
VL: DIQMTQSPSSVSASVGDRLTIICRASQDINRWLAWYQQTPGNAPKLLIHSATSLQSGVPSRFSGSGSGTDFTLTINSLQPEDFATYYCQQADSFPLTFGGGTKVEIK
B15: XPA23 Fab, heavy chain S52D (Fab, V domains shown)
VH: EVQLLESGGGLVQPGGSLRLSCAASGFTFSKYFMFWVRQAPGKGLEWVSVIDPSGGMTRYADSVKGRFTISRDNSKNTLYLQMNSLRAEDTAVYYCARVGYGGNSDYWGQGTLVTVSS
VL: DIQMTQSPSSVSASVGDRLTIICRASQDINRWLAWYQQTPGNAPKLLIHSATSLQSGVPSRFSGSGSGTDFTLTINSLQPEDFATYYCQQADSFPLTFGGGTKVEIK
B16: XPA23 Fab, heavy chain S30R (Fab, V domains shown)
VH: EVQLLESGGGLVQPGGSLRLSCAASGFTFRKYFMFWVRQAPGKGLEWVSVISPSGGMTRYADSVKGRFTISRDNSKNTLYLQMNSLRAEDTAVYYCARVGYGGNSDYWGQGTLVTVSS
VL: DIQMTQSPSSVSASVGDRLTIICRASQDINRWLAWYQQTPGNAPKLLIHSATSLQSGVPSRFSGSGSGTDFTLTINSLQPEDFATYYCQQADSFPLTFGGGTKVEIK
B17: XPA23 Fab, heavy chain S52R (Fab, V domains shown)
VH: EVQLLESGGGLVQPGGSLRLSCAASGFTFSKYFMFWVRQAPGKGLEWVSVIRPSGGMTRYADSVKGRFTISRDNSKNTLYLQMNSLRAEDTAVYYCARVGYGGNSDYWGQGTLVTVSS
VL: DIQMTQSPSSVSASVGDRLTIICRASQDINRWLAWYQQTPGNAPKLLIHSATSLQSGVPSRFSGSGSGTDFTLTINSLQPEDFATYYCQQADSFPLTFGGGTKVEIK
B18: XPA23 Fab, heavy chain S52E (Fab, V domains shown)
VH: EVQLLESGGGLVQPGGSLRLSCAASGFTFSKYFMFWVRQAPGKGLEWVSVIEPSGGMTRYADSVKGRFTISRDNSKNTLYLQMNSLRAEDTAVYYCARVGYGGNSDYWGQGTLVTVSS
VL: DIQMTQSPSSVSASVGDRLTIICRASQDINRWLAWYQQTPGNAPKLLIHSATSLQSGVPSRFSGSGSGTDFTLTINSLQPEDFATYYCQQADSFPLTFGGGTKVEIK
B19: XPA23 Fab, heavy chain S30F (Fab, V domains shown)
VH: EVQLLESGGGLVQPGGSLRLSCAASGFTFFKYFMFWVRQAPGKGLEWVSVISPSGGMTRYADSVKGRFTISRDNSKNTLYLQMNSLRAEDTAVYYCARVGYGGNSDYWGQGTLVTVSS
VL: DIQMTQSPSSVSASVGDRLTIICRASQDINRWLAWYQQTPGNAPKLLIHSATSLQSGVPSRFSGSGSGTDFTLTINSLQPEDFATYYCQQADSFPLTFGGGTKVEIK
B20: XPA23 Fab, heavy chain S52Q (Fab, V domains shown)
VH: EVQLLESGGGLVQPGGSLRLSCAASGFTFSKYFMFWVRQAPGKGLEWVSVIQPSGGMTRYADSVKGRFTISRDNSKNTLYLQMNSLRAEDTAVYYCARVGYGGNSDYWGQGTLVTVSS
VL: DIQMTQSPSSVSASVGDRLTIICRASQDINRWLAWYQQTPGNAPKLLIHSATSLQSGVPSRFSGSGSGTDFTLTINSLQPEDFATYYCQQADSFPLTFGGGTKVEIK
B21: XPA23 Fab, heavy chain S52N (Fab, V domains shown)
VH: EVQLLESGGGLVQPGGSLRLSCAASGFTFSKYFMFWVRQAPGKGLEWVSVINPSGGMTRYADSVKGRFTISRDNSKNTLYLQMNSLRAEDTAVYYCARVGYGGNSDYWGQGTLVTVSS
VL: DIQMTQSPSSVSASVGDRLTIICRASQDINRWLAWYQQTPGNAPKLLIHSATSLQSGVPSRFSGSGSGTDFTLTINSLQPEDFATYYCQQADSFPLTFGGGTKVEIK

The target in the experiment is T1, IL-1beta (UniProt P01584 117-269).
T1 construct: also called IL-1β
The experiment in a line: Biacore. (SPR reads the build-up and loss of mass on a sensor chip optically.)
For B1, the “fold difference in affinity vs parental” value was 0.13 fold.

On to B2, for which the binding result is “no binding”.

For B3, the “fold difference in affinity vs parental” value was determined as 0.77 fold.

Consider B4, for which the “fold difference in affinity vs parental” value was found to be 0.09 fold.

Turning to B5, the “fold difference in affinity vs parental” value came out at 0.15 fold.

In the case of B6, the binding result is “no binding”.

On to B7, for which the binding result is recorded as “no binding”.

In the case of B8, the binding result is recorded as “no binding”.

In the case of B9, the binding result is “no binding”.

In the case of B10, the binding result is reported as “no binding”.

On to B11, for which the binding result is “no binding”.

B12: the binding result is reported as “no binding”.

Consider B13, for which the binding result is “no binding”.

B14: the binding result is “no binding”.

Turning to B15, the binding result is “no binding”.

As for B16, the “fold difference in affinity vs parental” value is 0.1 fold.

For B17, the binding result was “no binding”.

For B18, the binding result is listed as “no binding”.

For B19, the binding result was “no binding”.

Consider B20, for which the binding result was “no binding”.

With B21, the binding result was “no binding”.
